Source: PMC5584168

T1: full-length She1 (She1-FL), HALO-tagged (S. cerevisiae), P38200
T1 chain: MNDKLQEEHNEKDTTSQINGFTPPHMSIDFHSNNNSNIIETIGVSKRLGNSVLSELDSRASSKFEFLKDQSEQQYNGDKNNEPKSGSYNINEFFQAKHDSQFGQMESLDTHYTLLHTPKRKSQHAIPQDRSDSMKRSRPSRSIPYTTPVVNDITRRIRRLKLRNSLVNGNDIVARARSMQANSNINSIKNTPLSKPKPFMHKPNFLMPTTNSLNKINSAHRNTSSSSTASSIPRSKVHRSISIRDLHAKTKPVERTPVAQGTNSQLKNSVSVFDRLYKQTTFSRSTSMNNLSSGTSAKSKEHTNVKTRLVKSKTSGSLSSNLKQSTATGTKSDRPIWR


Legend:
[1] = molecular target: Taxol-stabilized microtubules polymerised from bovine tubulin (bovine) (UniProt Q6B856); assay: wide-field fluorescence microscopy of labelled protein on microtubules; 1 µM TMR-labeled She1 construct preincubated with 60 nM Taxol-stabilized HiLyte 488–labeled MTs, room temperature, 20 min, MAP-binding buffer with 150 mM KCl and 20 µM Taxol; MTs held in a flow chamber by antitubulin antibody; bound TMR fluorescence on the MT measured
[2] = molecular target: T1, full-length She1 (She1-FL), HALO-tagged …; assay: negative-stain EM; purified She1-FL at 4 µM on carbon-coated grids, 0.75% uranyl formate; details: remark: other sources report otherwise
[3] = molecular target: Taxol-stabilized microtubules polymerised from bovine tubulin (bovine) (UniProt Q6B856); assay: co-sedimentation; low-speed microfuge pelleting (15,871 g, 10 min, room temperature); 5 µM She1-C–TMR with varying concentrations of Taxol-stabilized MTs, MAP buffer with 50 mM KCl; quadratic fit, apparent dissociation constant; stoichiometry from the saturation point

| mean TMR fluorescence on MTs [1] | stoichiometry N [2] | stoichiometry N (She1-C–TMR per tubulin) [3] | Binder |
| --- | --- | --- | --- |
| 22000 a.u. |  |  | full-length She1 (She1-FL), HALO-tagged (natural protein, HaloTag TMR ligand (MT-binding and cross-linking assays) or HaloTag Alexa Fluor 488 ligand (ultracentrifugation) on the HALO tag) MNDKLQEEHNEKDTTSQINGFTPPHMSIDFHSNNNSNIIETIGVSKRLGNSVLSELDSRASSKFEFLKDQSEQQYNGDKNNEPKSGSYNINEFFQAKHDSQFGQMESLDTHYTLLHTPKRKSQHAIPQDRSDSMKRSRPSRSIPYTTPVVNDITRRIRRLKLRNSLVNGNDIVARARSMQANSNINSIKNTPLSKPKPFMHKPNFLMPTTNSLNKINSAHRNTSSSSTASSIPRSKVHRSISIRDLHAKTKPVERTPVAQGTNSQLKNSVSVFDRLYKQTTFSRSTSMNNLSSGTSAKSKEHTNVKTRLVKSKTSGSLSSNLKQSTATGTKSDRPIWR |
|  | 6 |  | full-length She1 (She1-FL), HALO-tagged, P38200 1-338 (natural protein, here or on the partner: HaloTag TMR ligand (MT-binding and cross-linking assays) or HaloTag Alexa Fluor 488 ligand (ultracentrifugation) on the HALO tag; HaloTag TMR ligand (MT-binding and cross-linking assays) or HaloTag Alexa Fluor 488 ligand (ultracentrifugation) on the HALO tag) MNDKLQEEHNEKDTTSQINGFTPPHMSIDFHSNNNSNIIETIGVSKRLGNSVLSELDSRASSKFEFLKDQSEQQYNGDKNNEPKSGSYNINEFFQAKHDSQFGQMESLDTHYTLLHTPKRKSQHAIPQDRSDSMKRSRPSRSIPYTTPVVNDITRRIRRLKLRNSLVNGNDIVARARSMQANSNINSIKNTPLSKPKPFMHKPNFLMPTTNSLNKINSAHRNTSSSSTASSIPRSKVHRSISIRDLHAKTKPVERTPVAQGTNSQLKNSVSVFDRLYKQTTFSRSTSMNNLSSGTSAKSKEHTNVKTRLVKSKTSGSLSSNLKQSTATGTKSDRPIWR |
| 21000 a.u. |  | 1 | She1-C, C-terminal 194–338 aa of She1, HALO-tagged (domain or fragment, HaloTag TMR ligand on the HALO tag where labelled) SKPKPFMHKPNFLMPTTNSLNKINSAHRNTSSSSTASSIPRSKVHRSISIRDLHAKTKPVERTPVAQGTNSQLKNSVSVFDRLYKQTTFSRSTSMNNLSSGTSAKSKEHTNVKTRLVKSKTSGSLSSNLKQSTATGTKSDRPIWR |
